Measured values as given in article PMC10484678.

Target: PCBP2 KH1/2 (human, UniProt Q15366 1-168)
Test: ITC

PCBP2 KH1/2, sequence (Q15366 1-168): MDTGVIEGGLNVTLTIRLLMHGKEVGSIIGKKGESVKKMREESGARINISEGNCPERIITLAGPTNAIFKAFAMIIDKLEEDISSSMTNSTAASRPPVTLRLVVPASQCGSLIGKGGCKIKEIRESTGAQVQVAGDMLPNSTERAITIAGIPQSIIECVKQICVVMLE

Question: How did the Kd turn out when GCUCUGGGGUUGUACCCACCCCAGAGC (structured_RNA) [PV stem-loop B] was run?
Answer: 22.9 ± 6.3 µM
